Assay results as given in US20230049752A1 (University of California, published 2023).

Tests used:
[1] = target: CLDN3/4 (endogenous on LS513 or MCF7 cells); assay: FACS titration of labelled mAb on LS513 cells (endogenous CLDN3/4+)
[2] = target: CLDN3/4 (endogenous on LS513 or MCF7 cells); assay: FACS titration of labelled mAb on MCF7 cells (endogenous CLDN3/4+)
[3] = target: human Claudin-6 (CLDN6) (human) (UniProt P56747); assay: FACS titration of labelled mAb on OVCA429 cells (endogenous CLDN6+)
[4] = target: T1, Claudin-9 (CLDN9) (human, UniProt O95484 1-217); assay: FACS titration of labelled mAb on HEK293T CLDN9-mGFP cells
T1 construct: whole, on cells; also called CLDN9-GFP; CLDN9-mGFP
T1 sequence (looked up): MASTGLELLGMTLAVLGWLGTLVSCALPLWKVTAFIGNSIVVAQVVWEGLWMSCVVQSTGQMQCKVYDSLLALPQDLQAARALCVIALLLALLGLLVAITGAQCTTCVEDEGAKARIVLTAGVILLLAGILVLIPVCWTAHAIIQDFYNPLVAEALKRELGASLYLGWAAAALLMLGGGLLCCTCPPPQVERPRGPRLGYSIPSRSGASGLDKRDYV
Protocol: (§1) CLDN6 antibodies were tested from 0.32 nM to 1000 nM (serial dilution 1:5, 6 points) in a 50 μl volume with 150,000 cells system.
(§2) CLDN6-expressing cells were used in FACS assays to determine the CLDN6 antibody's ability to bind to CLDN6 on the surface of cells and to cross-react with other CLDN family members. HEK293 T cells engineered to express human CLDN6 fused to GFP, mouse CLDN6 fused to GFP, CLDN9-GFP, CLDN4-GFP, or CLDN3-GFP, or GFP alone (without CLDN6) were used as artificial models of CLDN6 expression.
(§3) For each type of cell tested and for each mAb, cells were detached from the surface of the culture flasks by EDTA (instead of trypsin) in order to protect the cell surface proteins. The detached cells were then incubated with Alexa Fluor®-labeled CLDN6 mAbs for 30 min in the dark on ice at a pre-determined concentration. […] After washing, the cells were read by a BD Accuri™ Flow Cytometer C6 to detect antibody-antigen protein binding in channel FL4H. Each antibody was tested at varied concentrations to establish a dose-fluorescence curve. […] Cross-reactivity data were obtained using a similar methodology, but with cells having a different expression profile for CLDN6, CLDN3, CLDN4 and CLDN9.

[5] = target: human Claudin-6 (CLDN6) (human) (UniProt P56747); assay: FACS titration of labelled mAb on HEK293T-CLDN6-mGFP cells
[6] = target: T2, Claudin-4 (CLDN4) (human, UniProt O14493 1-209); assay: FACS titration of labelled mAb on HEK293T CLDN4-mGFP cells
T2 construct: whole, on cells; also called CLDN4-GFP; CLDN4-mGFP
T2 sequence (looked up): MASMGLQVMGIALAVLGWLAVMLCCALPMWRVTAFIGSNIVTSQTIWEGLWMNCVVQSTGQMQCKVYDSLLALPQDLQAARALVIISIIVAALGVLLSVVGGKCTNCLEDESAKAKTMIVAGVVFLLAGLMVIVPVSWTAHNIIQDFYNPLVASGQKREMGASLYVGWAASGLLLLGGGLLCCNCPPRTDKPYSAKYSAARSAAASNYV
Protocol: as §1, §2, §3

[7] = target: human Claudin-6 (CLDN6) (human) (UniProt P56747); assay: FACS titration of labelled mAb on ARK2 cells (endogenous CLDN6+)
[8] = target: T3, mouse Claudin-6 (CLDN6) (mouse, UniProt Q9Z262 1-219); assay: FACS titration of labelled mAb on HEK293T mouse CLDN6-mGFP cells
T3 construct: whole, on cells; GFP fusion on engineered HEK293T cells; also called Mouse CLDN6; murine CLDN6
T3 sequence (looked up): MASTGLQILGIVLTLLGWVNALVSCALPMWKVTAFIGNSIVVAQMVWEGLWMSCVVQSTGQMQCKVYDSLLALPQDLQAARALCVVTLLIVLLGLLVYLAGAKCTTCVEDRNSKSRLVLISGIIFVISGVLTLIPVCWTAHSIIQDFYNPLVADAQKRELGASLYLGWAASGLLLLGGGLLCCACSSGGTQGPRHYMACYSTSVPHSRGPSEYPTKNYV
Protocol: as §1, §2, §3

[9] = target: human Claudin-6 (CLDN6) (human) (UniProt P56747); assay: flow cytometry, UMUC4 cells (positive cell line); 2nd Ab only 1,114.73
[10] = target: human Claudin-6 (CLDN6) (human) (UniProt P56747); assay: KinExA, HEK293T CLDN6-mGFP A11 cells detached by Versene, equilibrium curves 500pM, 10nM; printed 95% CI 3.41nM - 14.99nM
[11] = target: human Claudin-6 (CLDN6) (human) (UniProt P56747); assay: KinExA, HEK293T CLDN6-mGFP A11 cells detached by Versene, equilibrium curves 500pM, 10nM; printed 95% CI 1.49nM - 17.05nM
[12] = target: human Claudin-6 (CLDN6) (human) (UniProt P56747); assay: KinExA, HEK293T CLDN6-mGFP A11 cells detached by Versene, equilibrium curves 500pM, 10nM; printed 95% CI 1.07nM - 7.74nM
[13] = target: human Claudin-6 (CLDN6) (human) (UniProt P56747); assay: KinExA, HEK293T CLDN6-mGFP A11 cells detached by Versene, equilibrium curves 500pM, 10nM; printed 95% CI 1.05nM - 3.38nM
[14] = target: human Claudin-6 (CLDN6) (human) (UniProt P56747); assay: KinExA, HEK293T CLDN6-mGFP A11 cells detached by Versene, equilibrium curves 500pM, 10nM; printed 95% CI 0.56nM - 1.66nM

B1: AB12 (antibody, V domains shown)
VH: EVKLMESGGDLVKPGGSLKLSCAASGFTFSSYAMSWVRQTPEKRLEWVASIRSGGTTYYPDSVKGRFTISRDNARNILYLRMSSLRSEDTAIYYCAKVGGNPYPMDYWGQGTSVTVSS
VL: DIQMIQSPSSMFASLGDRVSLSCRASQDIGGNLDWYQQKPGGTIKLLIYSTSNLNSGVPSRFSGSGSGSDYSLTITSLESEDFADYYCLQRNAYPLTFGAGTKLELK
notes: full-length IgG (ExpiCHO)
- EC50 [1]: 2270 nM
- EC50 [2]: 5000 nM
- EC50 [3]: 2290 nM
- EC50 [4]: 2470 nM
- EC50 [5]: 5000 nM
- EC50 [6]: 2090 nM
- EC50 [7]: 1300 nM

B2: AB5 (antibody, V domains shown)
VH: EVQLQQSGPELVKPGASVKMSCKASGYIFTHYIMHWVKQKPGQGLEWIGCINPYNDGTKYNEKFKGKATLTSDKSSSTAYMELSSLTSEDSAVYYCARYYGYPYYSMDYWGQGTSVTVSS
VL: DVLMTQTPLSLPVSLGDQPSISCRSSQSIVHSNGNTYLDWYLQKPGQSPKLLIYKVSNRFSGVPDRFSGSGSGTDFTLKISRVEAEDLGVYYCFQGSHVPFTFGSGTRLEIK
notes: full-length IgG (ExpiCHO)
- EC50 [1]: 781 nM
- EC50 [2]: 1480 nM
- EC50 [8]: 11 nM
- EC50 [3]: 5 nM
- EC50 [4]: 25 nM
- EC50 [5]: 10 nM
- EC50 [7]: 8 nM

B3: AB11 (antibody, V domains shown)
VH: DVQLVESGGGLVQPRGSRKLSCAASGFTFSSFGMHWVRQAPEKGLEWVAYISSDSRTIYYADTVKGRFTISRDNPTNTLFLQMTSLRSEDTAMYYCARDYGRTYEAYWGQGTLVTVSA
VL: DIVLTQSPASLAVSLGQRATISCRASKSVSTSGYSYIHWYQQKPGQPPKLLIYLASNLESGVPARFSGSGSGTDFTLNIHPVEEEDAATYYCQHSRELPLTFGAGTKLELK
notes: full-length IgG (ExpiCHO)
- EC50 [1]: 493 nM
- EC50 [2]: 427 nM
- EC50 [8]: 2380 nM
- EC50 [3]: 835 nM
- EC50 [5]: 1700 nM
- EC50 [6]: 2240 nM
- EC50 [7]: 363 nM

B4: AB15 (antibody, V domains shown)
VH: B3 VH
VL: NIMMTQSPSSLAVSAGEKVTMSCKSSQSVLFSSNQKNYLAWYQQKPGQSPRLLIYWASTRESGVPDRFTGSGSGTDFTLTISNVQAEDLAVYYCHQYLSSRTFGAGTKLELK
notes: full-length IgG (ExpiCHO)
- EC50 [1]: 5000 nM
- EC50 [2]: 5000 nM
- EC50 [8]: ≥ 5000 nM
- EC50 [3]: 5000 nM
- EC50 [5]: 5000 nM
- EC50 [6]: ≥ 5000 nM
- EC50 [7]: 5000 nM

B5: CLDN6 ADC: AB3-7 conjugated to MC-VC-PAB-MMAE (conventional) (antibody, V domains shown)
VH: EVQLLESGGGLVQPGGSMRLSCAASGFTFSNYWMNWVRQAPGKGLEWVAQIRLKSDNYATHYADSVKGRFTISRDDSKNTVYLQMNSLRAEDTGVYYCNDGPPSGSWGQGTLLTVSS
VL: DIQMTQSPSSLSASVGDRVTITCRISENIYSYLAWYQQKPGKAPKLLVYNAKILVEGVPSRFSGSGSGTDFTLTISSLQPEDFGTYYCQHHYTVPWTFGQGTKLEIK
modifications: antibody conjugated to MC-VC-PAB-MMAE, heterogeneous drug load; attachment residues not stated
- flow cytometry signal at 1µg Ab/Sample [9]: 28800
- Kd [10]: 6.68 nM

B6: CLDN6 ADC: AB3-7 conjugated to MC-VC-PAB-MMAE (D4 technology) (antibody, V domains shown)
VH: B5 VH
VL: B5 VL
modifications: antibody conjugated to MC-VC-PAB-MMAE, mostly 4 drugs per antibody; attachment residues not stated
- Kd [11]: 5.34 nM
- flow cytometry signal at 0.1µg Ab/Sample [9]: 9450
- flow cytometry signal at 1µg Ab/Sample [9]: 26900

B7: CLDN6 ADC: AB3-7 conjugated to CL2A-SN38 (D4 technology) (antibody, V domains shown)
VH: B5 VH
VL: B5 VL
modifications: antibody conjugated to CL2A-SN38, mostly 4 drugs per antibody; attachment residues not stated
- Kd [12]: 2.87 nM
- flow cytometry signal at 0.1µg Ab/Sample [9]: 9140
- flow cytometry signal at 1µg Ab/Sample [9]: 34600

B8: CLDN6 ADC: AB3-7 conjugated to CL2A-SN38 (conventional) (antibody, V domains shown)
VH: B5 VH
VL: B5 VL
modifications: antibody conjugated to CL2A-SN38, heterogeneous drug load; attachment residues not stated
- flow cytometry signal at 0.1µg Ab/Sample [9]: 9990
- flow cytometry signal at 1µg Ab/Sample [9]: 33800
- Kd [13]: 1.91 nM

B9: CLDN6 ADC: AB3-7 conjugated to MC-GGFG-MMAE (D4 technology) (antibody, V domains shown)
VH: B5 VH
VL: B5 VL
modifications: antibody conjugated to MC-GGFG-MMAE, mostly 4 drugs per antibody; attachment residues not stated
- flow cytometry signal at 0.1µg Ab/Sample [9]: 8790
- flow cytometry signal at 1µg Ab/Sample [9]: 31600
- Kd [14]: 1.01 nM

B10: AB8 (antibody, V domains shown)
VH: QVQLQQSGAELARPGASVKMSCKASGYTFTTYTMHWLKQRPGQGLEWIGYINPRSGYSNYNQKFKDKATLTADKSSNTAYMQLNTLTSEDSKVYYCSRGELGGFAYWGQGTLVTVSA
VL: DVVMTQTPLSLPVSLGDQASISCRSSQSLVHSDGNTYLYWYLQKPGQSPKLLIYKVSNRFSGVPDRFSGSGSGTDFTLKISRVEAEDLGVYFCSQSTHVPYTFGGGTKLEIK
notes: full-length IgG (ExpiCHO)
- EC50 [1]: 1130 nM
- EC50 [2]: 1060 nM
- EC50 [8]: ≥ 5000 nM
- EC50 [3]: 1090 nM
- EC50 [4]: 2770 nM
- EC50 [5]: 1920 nM
- EC50 [6]: ≥ 5000 nM
- EC50 [7]: 1140 nM

B11: AB6 (antibody, V domains shown)
VH: DVQLQESGPGLVKSSQSLSLTCSVTGYSITSGYYWKWIRQFPGNKLEWMGYISYDGGINYNPSLKNRISITRDTSKNQFFLKLNSVTTEDTAKYYCARFGKGAMDYWGQGTSVTVSS
VL: AIVMFQSPSSLVVSAGEKVTMSCKSSQSLLNSRTRKNYLAWYQQKPGQSPKLLIYWASTRESGVPDRFTGSGSGTDFTLTISSVQAEDLAVYYCKQSYYLYTFGGGTKLEIK
notes: full-length IgG (ExpiCHO)
- EC50 [1]: 133 nM
- EC50 [2]: 1140 nM
- EC50 [8]: 2220 nM
- EC50 [3]: 394 nM
- EC50 [4]: 2770 nM
- EC50 [5]: 1430 nM
- EC50 [6]: 26 nM
- EC50 [7]: 765 nM

B12: AB7 (antibody, V domains shown)
VH: EVQLQQSGPELVKPGASMKISCKASGYSFTGYTMNWVKQSHGKNLEWIGLINPYNGGTNYNQKFKGKATLTVDKSSSTAYMELLSLTSEDSAVYYCARGVYDYDGFTYWGQGTLVTVSA
VL: QIVLTQSPAIMSASLGDRVTMTCTASSSVSSSYLHWYQQKPGSSPKLWIYSTSNLASGVPARFSGSGSGTSYSLTISSMEAEDAATYYCHQYHRSPPTFGSGTKLEIK
notes: full-length IgG (ExpiCHO)
- EC50 [1]: 635 nM
- EC50 [2]: 979 nM
- EC50 [8]: 1550 nM
- EC50 [3]: 531 nM
- EC50 [4]: 1940 nM
- EC50 [5]: 579 nM
- EC50 [6]: 2090 nM
- EC50 [7]: 353 nM
